Test results: publication PMC10570038, “Cell-type specific regulator RBPMS switches alternative splicing via higher-order oligomerization and heterotypic interactions with other splicing regulators” (Nucleic Acids Research, 2023)

Columns and labels:
[1] = target: the molecule itself; test: AUC; sedimentation velocity, 40 000 rpm, 20°C, 20 mM HEPES, 1 mM TCEP, pH 7.9, 500 mM KCl; FL and ΔC20 at equal molar concentration (0.46 and 0.57 mg/ml); continuous c(s) model
[2] = target: the molecule itself; test: SEC; size exclusion chromatography of purified untagged recombinant protein; compared with size markers (443 kDa marker, void volume)

B1: recombinant untagged full-length rat RBPMS-A (natural protein)
chain: not shown
notes: RBPMS isoform A (RBPMS-A), rat, cDNA NCBI XM_006253240.2; Exists as a mixture of dimers and higher-order oligomers; From pET15b-TEV-RBPMS-A; also called FL RBPMS; RBPMS-A FL; source: E. coli BL21(DE3), purified (HisTrap, TEV cleavage, Mono Q, Superdex 200); not shown: His6, N-terminal, cleaved
stoichiometry N [1]: ~21 | stoichiometry N [2]: 2
